In the supplement of paper PMC12764529:
± gives the half width of the 95% confidence interval.

What was measured:
[1] = folding stability dG unfold from trypsin proteolysis; higher = more stable
Outline: (§1)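 Unfolding free energy was derived, per protease or combined, against a sequence-predicted unfolded-state K50 and a shared folded-state K50, starting from K50 inferred by Bayesian fitting of sequencing counts. Digestion with trypsin and chymotrypsin was carried out on designed mini-proteins under 80 residues without cysteine in a PA-tagged cDNA display construct. Only designs with AlphaFold2 dimer inter-PAE above 15 were kept.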

[2] = folding stability dG unfold from chymotrypsin proteolysis; higher = more stable
Outline: as §1

[3] = folding stability dG unfold (combined trypsin and chymotrypsin); higher = more stable
Outline: as §1

Sequence | folding stability dG unfold [1] | folding stability dG unfold [2] | folding stability dG unfold [3]
SAGGMPVPVKIEIIDDPGTLIITTPNGKPYTIPIPPNSIEEITIDPEKKVIKIKLKDGEIIIDVPDGSAGGS [r16_104_TrMRF] | 1.62 ± 0.072 kcal/mol | 1.87 ± 0.038 kcal/mol | 1.88 ± 0.11 kcal/mol
SAGGSASPFYIAYDPNKPNVATIYPSSQPNLSGSNGATVTPLTDEAELAALKAELKAAGITTITFSSAGGSA [r15_1004_JUSTAS] | 0.834 ± 0.054 kcal/mol | 0.355 ± 0.22 kcal/mol | 0.65 ± 0.11 kcal/mol
SAGGKKVIEIEITVKPGETITITVPPGARIEIVDLDTGEVREIEIEPGETITLTLPPGSTLLIRIYEPSAGG [r19_78_TrROS_Hall] | 3.66 ± 0.25 kcal/mol | 4.04 ± 0.11 kcal/mol | 4.01 ± 0.23 kcal/mol
SAGGSAMVVRITTKDGKKIEITVKSVEELLEALKELGVEEVKLEKLPDGKELKLTVTLKDGKIEILSAGGSA [r15_632_TrROS_Hall] | 3.14 ± 0.087 kcal/mol | 2.8 ± 0.077 kcal/mol | 2.92 ± 0.054 kcal/mol
SMVLELPAKDLKLEVNEDGTLKLTIKLENGKKVTFTFPAGDKITKIEVLSPDKVKIIFEKKPLKDLKTFLSA [r9_501_TrMRF] | 1.1 ± 0.047 kcal/mol | 1.76 ± 0.074 kcal/mol | 1.61 ± 0.19 kcal/mol
SAGGSAGGSAGGSMSVVVTVKDPRTGSTTTVTVSPAEVEEAIEEAKKKGYSVVTVSEGGSAGGSAGGSAGGS [r4_102_JUSTAS] | 1.84 ± 0.1 kcal/mol | 1.43 ± 0.024 kcal/mol | 1.68 ± 0.085 kcal/mol
SAGGSAPLVATEVSVEGNTIVVRSVTRLPNGTLSEDVVLIELPPLPLPPPAPWSTFPETGRLRLGPSAGGSA [r15_335_JUSTAS] | 0.159 ± 0.15 kcal/mol | 0.76 ± 0.21 kcal/mol | 0.481 ± 0.24 kcal/mol
SAGTTVTLTDPVTGNVTTITKDPTDPNLWTVTLPDGSSVTAKRSEIAKKLGLSPEKLLSDYPVPSVSLTSAG [r5_156_JUSTAS] | 1.94 ± 0.031 kcal/mol | 1.88 ± 0.024 kcal/mol | 1.94 ± 0.038 kcal/mol
SAGGSAGGSAPVPINITFPDGSVAVNGSPDVAYLYFPEKGTIYRIPIDPDTNIITIEEVFKVPSAGGSAGGS [r12_539_TrMRF] | 0.744 ± 0.043 kcal/mol | 1.03 ± 0.067 kcal/mol | 0.964 ± 0.05 kcal/mol
SAGMGLVGRTKDGKWIPAADLTEEQLKDMELDLGEPLPPVVVKVEVEWKLSPEDKLEVKLKVEVFVEGSAGG [r19_232_TrMRF] | 1.02 ± 0.15 kcal/mol | 2.87 ± 0.07 kcal/mol | 2.17 ± 0.2 kcal/mol
SAGGSASIEELLKEIIDNLKPGEKYKITIEVDGEEKTFTFTNKNGEKIEIVVKDGKIVSIKIEKLPSAGGSA [r15_175_TrROS_Hall] | 2.5 ± 0.4 kcal/mol | 4.21 ± 0.12 kcal/mol | 3.97 ± 0.3 kcal/mol
SAGGKAKIVEIKYNEETGTVTIKIKNEDGEEYEISIKLPPGAKIEIDEDGNITIKDIPAEQIEVRKVSAGGS [r16_515_TrROS_Hall] | 0.895 ± 0.03 kcal/mol | 1.68 ± 0.056 kcal/mol | 1.46 ± 0.12 kcal/mol
SAGGSAGGSAGGPVVEELEEDLVTEYFRDGDDLYKVVFIPGTGKPFEKKIESIPPDEPFSAGGSAGGSAGGS [r10_240_TrMRF] | 0.119 ± 0.088 kcal/mol | -0.0602 ± 0.21 kcal/mol | 2.34e-05 ± 0.23 kcal/mol
SAGGEIEVEVLEVDPETGEVLLKITFDAEPEVIDFLVSLGFDPEHISDDGDGKVTAIVRAPPDLTIASAGGS [r16_755_TrMRF] | 2.21 ± 0.087 kcal/mol | 3.02 ± 0.061 kcal/mol | 2.79 ± 0.09 kcal/mol
SAGGPPVTIMIRLPPLQEQLPPEWLEKLKNIRVPNGHPIKDIDVQPHNGRWVIMIKVDSPEQARDIIRSAGG [r13_269_TrROS] | 1.66 ± 0.048 kcal/mol | 1.89 ± 0.053 kcal/mol | 1.75 ± 0.13 kcal/mol
SAGGSAGGMAKVKILKIKPVNTGEDGSKSVEIEVEFENPNPEVAKAFVEEIAKKLGFEEVEDTTSAGGSAGG [r6_317_TrMRF] | 0.43 ± 0.079 kcal/mol | 0.687 ± 0.15 kcal/mol | 0.406 ± 0.28 kcal/mol
SAGGSARIEPVGDYLVIEIPFRYPDGMEWYIEIVINPEEGKIPVDQYPPGDGEPVGEKTLPADEVKSAGGSA [r15_671_TrROS] | 0.507 ± 0.14 kcal/mol | 2.27 ± 0.11 kcal/mol | 1.52 ± 0.23 kcal/mol
SAGGMVLVERDGDRLVLLIPFPADEPPTPEEVEAEARAILRELGPDVRIRSVHRLPDGGYLVEAEVDSAGGS [r8_103_TrMRF] | 3.17 ± 0.065 kcal/mol | 3.69 ± 0.038 kcal/mol | 3.56 ± 0.041 kcal/mol
SAGGMPEEELTLIVRIKVYNPETGEEKEITLTITVKSEEELEKAKKLVEELEEKLKELGIKKVEIEILSAGG [r13_360_TrROS_Hall] | 2.92 ± 0.25 kcal/mol | 3.37 ± 0.097 kcal/mol | 3.2 ± 0.26 kcal/mol
SAGGSAGGSEKPEVEKITLEITLTDEDGNKHTIKVELVRNAKTKKYYLRITLEDGSEFVFEIDSAGGSAGGS [r12_286_TrROS_Hall] | 3.88 ± 0.14 kcal/mol | 4.83 ± 0.14 kcal/mol | 4.71 ± 0.13 kcal/mol
SAGGSAGGTLSIEELKELFPEAEKIEAEEVELTFTLPNGKKVKAKYRLVTVYRDNKPILLLVPGSAGGSAGG [r6_138_TrMRF] | 2.82 ± 0.17 kcal/mol | 2.97 ± 0.056 kcal/mol | 2.97 ± 0.12 kcal/mol

Sequence | folding stability dG unfold [1] | folding stability dG unfold [2] | folding stability dG unfold [3]
SAGGSAGGSPNYRTVTVTLPNGEVYVIDVSQLIESDPNYVPGDPISDEELVALAKKRAEELELSSAGGSAGG [r6_65_JUSTAS] | 2.71 ± 0.051 kcal/mol | 3.249 ± 0.031 kcal/mol | 3.04 ± 0.041 kcal/mol
SGKKIEIVKKILEELGIPIVKIEEVTPDRIVVEVEEGRRISIAIKPDDPDVVLIDPKPTEDGGWSSDLPDSA [r9_809_TrMRF] | 1.26 ± 0.038 kcal/mol | 0.939 ± 0.042 kcal/mol | 1.06 ± 0.12 kcal/mol
SAGGSPGIKIEIWFMIMFPVKPDPDNGKPRWYMIMVSPKMWYDPEPGGMQIEIDINIMPLGDPEAFSAGGSA [r2_489_TrROS] | 3.2 ± 0.16 kcal/mol | 3.6 ± 0.038 kcal/mol | 3.41 ± 0.21 kcal/mol
SAGGSAGGEGWRPLNVWIPFPDPKARLDEIVDMISKLFGWPIKIKITEVIPGDPDMIRVTIYVPSAGGSAGG [r6_211_TrROS] | 3.41 ± 0.11 kcal/mol | 3.53 ± 0.056 kcal/mol | 3.47 ± 0.091 kcal/mol
SAGGSAGGSAGGSMKVILDKKNNELYILLKDENGKLLLAKITLLPNGEIKIEVYDLKDLSAGGSAGGSAGGS [r4_434_TrROS_Hall] | 2.27 ± 0.066 kcal/mol | 3.98 ± 0.1 kcal/mol | 3.56 ± 0.13 kcal/mol
SAGGSAGGSMTAEELAKAFPNLPKEEITEIRVEKNEDGTITVTITVKNKNGEKIEIKVEIKLESAGGSAGGS [r12_1050_TrROS_Hall] | 1.34 ± 0.097 kcal/mol | 2.16 ± 0.067 kcal/mol | 2.03 ± 0.1 kcal/mol
SAGGSAGGSAGGWRTVWIRMPPGQSPEQAVDEIKDHFPPGEPIEVEYHPNDGFFRVKIPSAGGSAGGSAGGS [r10_163_TrROS] | 0.654 ± 0.08 kcal/mol | 0.546 ± 0.22 kcal/mol | 0.668 ± 0.077 kcal/mol
SAMTIVIRLPPPPPPLTAEELAELLGAEVTEIRVERNEDGELVVTITVREDMSEEQRRRLLELLRERAESAG [r14_421_TrROS_Hall] | 4.32 ± 0.07 kcal/mol | 3.83 ± 0.048 kcal/mol | 4.02 ± 0.075 kcal/mol
SMLSEMPPEELAERIARELGLVGAEVEAVRVGDVLLVPLRLRDPVRDEVRLLVLLVVPEDDGRVLLTDLSSA [r9_1042_TrMRF] | 1.46 ± 0.027 kcal/mol | 2.5 ± 0.029 kcal/mol | 2.16 ± 0.091 kcal/mol
SAGGSATVEEIAKYFAEQHPGMEPKSVKLDYERNPEEGVYRIKVNITMRFDDNKKHKMPVEIQFPVSAGGSA [r15_266_TrROS] | 0.406 ± 0.059 kcal/mol | 0.358 ± 0.14 kcal/mol | 0.433 ± 0.085 kcal/mol
SAGMSLEEIAKEFAKKKGLKKVEIKYYPEKKTYEIKVYLEEPGEPKTATIKVEDVTPETFKKAIEEILESAG [r5_896_TrMRF] | 3.61 ± 0.32 kcal/mol | 4.75 ± 0.16 kcal/mol | 4.83 ± 0.41 kcal/mol
SAGEPLVPLSEYELDVPGGQKVKIEIYALPDGTVVVRITDSEGNESEITIPRAELEKLSPEEIVARLSSAGG [r19_47_JUSTAS] | 3.71 ± 0.14 kcal/mol | 3.57 ± 0.093 kcal/mol | 3.67 ± 0.098 kcal/mol
KGVVVGPDEPLVSDDGKLVVFPNAQITYDPKTGKPTIAFHVDPEALAQGDPEALKGLRDLAKELNIDELTPS [r1_438_TrMRF] | -0.156 ± 0.1 kcal/mol | 1.03 ± 0.044 kcal/mol | 0.692 ± 0.12 kcal/mol
SAGGSAGGSMYYVVVTRPGGRPEVIVVPTETLEEVEEVAARIAEALRELGIPEEELEIRVLPVSAGGSAGGS [r12_295_TrMRF] | 2.4 ± 0.046 kcal/mol | 1.679 ± 0.016 kcal/mol | 2.03 ± 0.091 kcal/mol
SAGGSAGGSAGGSMVKISKEPDRLTITITPGNTPLVFESTEPISEEEFVEKAKKENPLISAGGSAGGSAGGS [r4_191_JUSTAS] | 0.215 ± 0.13 kcal/mol | 1.03 ± 0.037 kcal/mol | 0.657 ± 0.17 kcal/mol
SAGGSAGGMLEITVPSRREPDSLEVEITITDPSSNTTTTLRRRFPPGDETSPEEIAEKIAAELSSAGGSAGG [r6_234_JUSTAS] | 0.677 ± 0.13 kcal/mol | 0.332 ± 0.23 kcal/mol | 0.505 ± 0.28 kcal/mol
SAGGPPFKIKEINIQYNPDAGYVTMTFTFDDGATVEAMISPEEGRIPGKVEVPGKEIEHEFEIPVPPSAGGS [r8_363_TrROS] | 1.4 ± 0.041 kcal/mol | 1.5 ± 0.099 kcal/mol | 1.38 ± 0.19 kcal/mol
SAGGDWRPVEFTIKILIPKGMTADELIEEIKEIARNLGLTIKPISVEVYPVPNKYYVEINVEIWIPPNSAGG [r13_351_TrROS] | 2.57 ± 0.14 kcal/mol | 4.54 ± 0.19 kcal/mol | 4.17 ± 0.33 kcal/mol
SAGGSAGGSAFDPGAPWIIMINIDIEVKKVEIERDPGDGKWEIKRIEITITIDIAIMPAEDMSAGGSAGGSA [r18_137_TrROS] | 3.42 ± 0.39 kcal/mol | 4.11 ± 0.23 kcal/mol | 3.88 ± 0.38 kcal/mol
SAGGKITITVEYNKETNTVRIKITTEDGKEKELEINLENLTEEELKKLAEEIAKKLNPEKIKKVEIYPSAGG [r13_267_TrROS_Hall] | 1.69 ± 0.11 kcal/mol | 2.69 ± 0.12 kcal/mol | 2.33 ± 0.13 kcal/mol
SAGGSAGGSAGGEKVVVPPPEVELRLERREDGYVRLYARNKDGEWEEVAVFKVSPEELELSAGGSAGGSAGG [r7_659_TrROS_Hall] | 3.09 ± 0.19 kcal/mol | 3.77 ± 0.13 kcal/mol | 3.37 ± 0.32 kcal/mol
